Target: T1, MBP-METTL7A WT (human, UniProt Q9H8H3 1-244)
T1 sequence: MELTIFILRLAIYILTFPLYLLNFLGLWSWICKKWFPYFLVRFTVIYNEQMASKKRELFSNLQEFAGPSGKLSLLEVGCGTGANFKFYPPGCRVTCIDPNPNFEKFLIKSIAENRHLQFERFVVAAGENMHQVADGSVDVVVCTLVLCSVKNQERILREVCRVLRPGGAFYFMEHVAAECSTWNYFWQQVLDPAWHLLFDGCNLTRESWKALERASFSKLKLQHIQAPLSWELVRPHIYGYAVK
Test: EMSA

B1: 60 bp dsDNA (dsDNA)
DNA 1: ATTCTTCCGAGTTTTTTCCTCATCTCACTTCCAATACAGAAAGCTTGCCCCGCCCTTCCT
DNA 2: AGGAAGGGCGGGGCAAGCTTTCTGTATTGGAAGTGAGATGAGGAAAAAACTCGGAAGAAT
binding result: binds
